The results in this text go back to patent publication US20260234247A1 (published 2026).

The target in experiment [1] is T1, human LILRA1 (human, UniProt O75019 17-461, limits assumed).
T1 construct: Bought protein; also called hLILRA1
Briefly: ELISA, 200 nM antibody, OD450; + = 2-fold over ISO. In general terms: An ELISA detects its analyte on a solid surface through an enzyme-linked reagent.
T1 sequence (O75019 17-461 limits assumed): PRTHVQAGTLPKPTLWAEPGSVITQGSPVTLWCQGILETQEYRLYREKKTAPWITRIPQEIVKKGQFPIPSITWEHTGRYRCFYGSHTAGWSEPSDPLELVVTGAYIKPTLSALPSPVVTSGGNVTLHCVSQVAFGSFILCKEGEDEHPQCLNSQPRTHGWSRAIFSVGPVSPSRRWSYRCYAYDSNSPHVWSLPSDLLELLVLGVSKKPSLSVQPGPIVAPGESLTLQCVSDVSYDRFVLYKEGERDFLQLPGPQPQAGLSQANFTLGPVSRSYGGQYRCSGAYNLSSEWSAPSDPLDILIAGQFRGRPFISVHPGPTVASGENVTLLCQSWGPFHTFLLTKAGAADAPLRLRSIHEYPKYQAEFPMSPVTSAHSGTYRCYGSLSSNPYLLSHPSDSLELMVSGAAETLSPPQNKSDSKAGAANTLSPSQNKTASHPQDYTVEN
Procedure: (§1) To further confirm binding affinity, selected clones were assayed in ELISA or FACS in a range of testing concentrations.

In experiment [2] the target is T2, human LILRA2 (human, UniProt Q8N149 24-449).
T2 construct: Bought protein; also called hLILRA2
Briefly: ELISA, 200 nM antibody, OD450; + = 2-fold over ISO.
T2 sequence (Q8N149 24-449 limits assumed): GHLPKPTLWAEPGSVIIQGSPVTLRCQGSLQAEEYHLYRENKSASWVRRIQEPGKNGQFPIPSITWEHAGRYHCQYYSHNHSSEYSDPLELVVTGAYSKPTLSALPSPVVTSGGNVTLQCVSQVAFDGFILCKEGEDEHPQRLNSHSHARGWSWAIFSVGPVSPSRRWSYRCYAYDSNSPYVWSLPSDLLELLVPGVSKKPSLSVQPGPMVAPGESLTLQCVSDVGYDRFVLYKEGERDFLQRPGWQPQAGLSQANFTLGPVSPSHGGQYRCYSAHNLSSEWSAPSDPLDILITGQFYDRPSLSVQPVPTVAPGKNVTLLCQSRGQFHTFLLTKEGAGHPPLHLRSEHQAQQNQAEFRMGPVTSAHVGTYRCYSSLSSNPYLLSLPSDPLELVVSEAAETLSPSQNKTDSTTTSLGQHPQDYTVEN
Procedure: as §1

For experiment [3], the target named is T3, human LILRA4 (human, UniProt P59901 24-446).
T3 construct: bought protein coated for ELISA; also called hLILRA4
Briefly: ELISA, OD450, antibody at 200 nM; + = 2-fold over ISO.
Procedure: as §1

Experiment [4] deals with T4, human LILRB1 (human, UniProt Q8NHL6 24-458, limits assumed).
T4 construct: also called hLILRB1
Briefly: Octet off-rate ranking.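 Further: antibody dissociation rate constants against cynomolgus LILRB2 plus human LILRB1, LILRB2, LILRA1 and LILRA2, measured on an Octet instrument to rank binding.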 In general terms: BLI is a label-free optical method that tracks binding on a fibre tip over time.
Source text: (§2) Binding affinity of anti-LILRB1 and anti-LILRB2 antibodies against human LILRB1, LILRB2, LILRA1, LILRA2 and cynomolgus LILRB2 was ranked by measuring dissociation rate constant (Kdis) using the Octet system.

Experiment [5] has as its target T5, human LILRA1 (human, UniProt O75019 17-461, limits assumed).
T5 construct: also called hLILRA1
The experiment is described as follows: Octet off-rate ranking.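 Further: antibody dissociation rate constants against cynomolgus LILRB2 plus human LILRB1, LILRB2, LILRA1 and LILRA2, measured on an Octet instrument to rank binding.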
T5 sequence (O75019 17-461 limits assumed): as the sequence (O75019 17-461 limits assumed) above
Source text: as §2

In experiment [6] the target is T6, human LILRA2 (human, UniProt Q8N149 24-449, limits assumed).
T6 construct: also called hLILRA2
Briefly: Octet off-rate ranking.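 Further: antibody dissociation rate constants against cynomolgus LILRB2 plus human LILRB1, LILRB2, LILRA1 and LILRA2, measured on an Octet instrument to rank binding.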
Source text: as §2

The target in experiment [7] is T7, Biotinylated LILRB1 (UniProt Q8NHL6 24-458, limits assumed, biotinylated (sites not given)). The experiment is described as follows: epitope binning ELISA, coated 1 ug/ml; competitor 15G8 at 20 ug/ml.
Experiment [8] has as its target T7, Biotinylated LILRB1. Briefly: epitope binning ELISA, coated 1 ug/ml; competitor LK-RB1-9 at 20 ug/ml.
Procedure: (§3) Binding epitope of a subset of anti-LILRB1 and anti-LILRB2 antibodies was analyzed by epitope binning ELISA. Briefly, a panel of testing antibodies were coated onto ELISA plate. 50 ul/well Biotinylated LILRB1 or LILRB2 and 50 ul/well of competing antibodies were added to the coated plate and incubated at 37° C. for 1 hour. After Streptavidin-HRP (1:5000) incubation and TMB development, the plates were read at 450 nm using Molecular device spectra max plus384.
Experiment [9] deals with T7, Biotinylated LILRB1. Briefly: epitope binning ELISA, coated 1 ug/ml; competitor LK-RB1-12 at 20 ug/ml.
Procedure: as §3
Experiment [10] has as its target T7, Biotinylated LILRB1. The experiment is described as follows: epitope binning ELISA, coated 1 ug/ml; competitor LK-RB1-16 at 20 ug/ml.
Procedure: as §3
The target of experiment [11] is T7, Biotinylated LILRB1. Briefly: epitope binning ELISA, coated 1 ug/ml; competitor LK-RB1-31 at 20 ug/ml.
Procedure: as §3
Experiment [12] addresses T7, Biotinylated LILRB1. The experiment is described as follows: epitope binning ELISA, coated 1 ug/ml; competitor LK-RB1-33 at 20 ug/ml.
Procedure: as §3
In experiment [13] the target is T7, Biotinylated LILRB1. Briefly: epitope binning ELISA, coated 1 ug/ml; competitor LK-RB1-47 at 20 ug/ml.
Procedure: as §3
Experiment [14] concerns the target T7, Biotinylated LILRB1. The experiment is described as follows: epitope binning ELISA, coated 1 ug/ml; competitor hz73D1.v1 at 20 ug/ml.
Procedure: as §3
For experiment [15], the target named is T8, human LILRB1 Variant 2 (human, UniProt Q8NHL6 24-458, limits assumed).
T8 construct: protein bought from Kactusbio, LLC (Cat: LIL-HM2V1 and LIL-HM2V2 for Variant 2 and 3)
Briefly: ELISA (FIG. 12B).

For experiment [16], the target named is T9, human LILRB1 Variant 3 (human, UniProt Q8NHL6 24-458, limits assumed).
T9 construct: protein bought from Kactusbio, LLC
Briefly: ELISA (FIG. 12C).

Experiment [17] deals with T10, human LILRA1 (human, UniProt O75019 17-461, limits assumed).
T10 construct: bought protein coated for ELISA; also called hLILRA1
The experiment is described as follows: ELISA, OD450, antibody at 200 nM; + = 2-fold over ISO.
T10 sequence (O75019 17-461 limits assumed): as above
Procedure: as §1

Experiment [18] deals with T11, human LILRA3 (human, UniProt Q8N6C8 24-439).
T11 construct: bought protein coated for ELISA; also called hLILRA3
The description is as above.
T11 sequence (Q8N6C8 24-439 limits assumed): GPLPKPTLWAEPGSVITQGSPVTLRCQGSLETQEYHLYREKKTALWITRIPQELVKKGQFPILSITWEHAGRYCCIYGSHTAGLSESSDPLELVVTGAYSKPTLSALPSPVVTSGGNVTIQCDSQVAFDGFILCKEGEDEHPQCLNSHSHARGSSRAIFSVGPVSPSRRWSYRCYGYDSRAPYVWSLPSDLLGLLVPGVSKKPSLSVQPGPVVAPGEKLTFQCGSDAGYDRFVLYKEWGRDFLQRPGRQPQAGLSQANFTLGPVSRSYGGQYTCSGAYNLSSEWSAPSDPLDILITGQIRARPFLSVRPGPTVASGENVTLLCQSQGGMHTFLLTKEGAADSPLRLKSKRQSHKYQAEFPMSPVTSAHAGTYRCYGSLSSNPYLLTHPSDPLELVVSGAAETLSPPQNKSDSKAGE
Procedure: as §1

Experiment [19] has as its target T12, human LILRB3 (human, UniProt O75022 24-443).
T12 construct: bought protein coated for ELISA; also called hLILRB3
Described as above.
Procedure: as §1

The target of experiment [20] is T13, human LILRB5 (human, UniProt O75023 24-458).
T13 construct: bought protein coated for ELISA; also called hLILRB5
The experiment is described as above.
Procedure: as §1

In experiment [21] the target is T14, human LILRA1 (human, UniProt O75019 17-461, limits assumed).
T14 construct: bought protein coated for ELISA; also called hLILRA1
Described as above. This is another data set of the same source.
T14 sequence (O75019 17-461 limits assumed): as the sequence (O75019 17-461 limits assumed) above
Procedure: as §1

For experiment [22], the target named is T15, human LILRA3 (human, UniProt Q8N6C8 24-439).
T15 construct: bought protein coated for ELISA; also called hLILRA3
Described as above. The source holds these as a separate data set.
T15 sequence (Q8N6C8 24-439 limits assumed): as the sequence (Q8N6C8 24-439 limits assumed) above
Procedure: as §1

The target in experiment [23] is T16, human LILRA2 (human, UniProt Q8N149 24-449).
T16 construct: bought protein coated for ELISA; also called hLILRA2
The experiment is described as above.
T16 sequence (Q8N149 24-449 limits assumed): as the sequence (Q8N149 24-449 limits assumed) above
Procedure: as §1

T7 sequence (Q8NHL6 24-458 limits assumed): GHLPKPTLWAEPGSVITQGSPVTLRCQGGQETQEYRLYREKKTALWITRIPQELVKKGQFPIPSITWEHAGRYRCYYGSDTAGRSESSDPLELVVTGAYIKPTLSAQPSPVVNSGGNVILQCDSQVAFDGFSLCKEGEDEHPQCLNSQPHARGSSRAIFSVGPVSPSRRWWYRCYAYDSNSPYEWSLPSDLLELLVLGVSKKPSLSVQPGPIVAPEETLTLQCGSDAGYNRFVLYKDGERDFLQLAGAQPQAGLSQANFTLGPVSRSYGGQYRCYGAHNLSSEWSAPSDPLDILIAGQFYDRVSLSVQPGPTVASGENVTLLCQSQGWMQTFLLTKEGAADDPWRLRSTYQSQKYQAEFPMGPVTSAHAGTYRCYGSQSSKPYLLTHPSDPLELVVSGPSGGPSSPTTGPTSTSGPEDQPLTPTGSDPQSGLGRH
T9 sequence (Q8NHL6 other isoform, or with tags, fused parts or gaps mutant limits assumed): as the sequence (Q8NHL6 24-458 limits assumed) above, with L45P, I119T, S132I counted along it
T8 sequence (Q8NHL6 other isoform, or with tags, fused parts or gaps mutant limits assumed): as the sequence (Q8NHL6 24-458 limits assumed) above, with L45P, A70T, I119T, S132I counted along it
T4 sequence (Q8NHL6 24-458 limits assumed): as the sequence (Q8NHL6 24-458 limits assumed) above
T6 sequence (Q8N149 24-449 limits assumed): as the sequence (Q8N149 24-449 limits assumed) above
T13 sequence (O75023 24-458 limits assumed): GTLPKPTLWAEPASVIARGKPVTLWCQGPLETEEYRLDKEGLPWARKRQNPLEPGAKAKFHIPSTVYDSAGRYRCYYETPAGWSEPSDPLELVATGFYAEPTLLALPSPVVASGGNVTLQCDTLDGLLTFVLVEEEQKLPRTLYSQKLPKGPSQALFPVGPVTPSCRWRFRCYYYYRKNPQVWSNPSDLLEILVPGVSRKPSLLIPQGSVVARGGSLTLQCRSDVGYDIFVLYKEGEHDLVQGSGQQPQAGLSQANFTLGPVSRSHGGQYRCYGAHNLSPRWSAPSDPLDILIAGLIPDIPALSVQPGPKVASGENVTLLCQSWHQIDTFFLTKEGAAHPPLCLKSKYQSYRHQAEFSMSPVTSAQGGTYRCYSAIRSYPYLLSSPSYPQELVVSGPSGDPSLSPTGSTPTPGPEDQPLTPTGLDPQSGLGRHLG
T3 sequence (P59901 24-446 limits assumed): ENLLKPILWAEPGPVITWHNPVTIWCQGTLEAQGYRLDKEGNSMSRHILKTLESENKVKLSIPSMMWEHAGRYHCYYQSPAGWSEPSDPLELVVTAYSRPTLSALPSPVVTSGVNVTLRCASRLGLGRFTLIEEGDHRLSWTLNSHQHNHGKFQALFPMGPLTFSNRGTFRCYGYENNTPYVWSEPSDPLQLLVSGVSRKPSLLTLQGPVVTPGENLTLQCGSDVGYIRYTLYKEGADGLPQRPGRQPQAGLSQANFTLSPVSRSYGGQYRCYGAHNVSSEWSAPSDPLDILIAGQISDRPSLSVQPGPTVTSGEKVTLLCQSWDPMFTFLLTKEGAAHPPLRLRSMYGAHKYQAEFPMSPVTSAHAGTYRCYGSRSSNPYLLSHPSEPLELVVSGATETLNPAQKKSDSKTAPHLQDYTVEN

B1: LK-RB2-41 (antibody, human IgG4 S228P, kappa, V domains shown)
VH: EVQLQLSGPELVKPGASVKMSCKASGYTFTDYNMHWVKQSHGKSLEWIGYINPNNGGTTYNQKFKGKATLTVNKSSSTAYMELRSLTSEDSAVYYCARAPYYGSSYLLAYWGQGTLVTVSA
VL: DIVMTQSHKFMSTSVGDRVSITCKASQDVSTAVAWYQQKPGQSPKLLIYSASYRYTGVPDRFTGSGSGTDFTFTISSVQAEDLAIYYCQQHYSIPWTFGGGTKLEIKR
Turning to B1, the binding result in [1] and in experiment [2] was “binds” each time.

B2: LK-RB1-2 (antibody, human IgG4 S228P, kappa, V domains shown)
VH: QIQLVQSGPELKKPGETVKISCKASGYTFTTYGVSWVKQAPGKGLKWMGWINTYSGVSTYSDDFKGRFAFSLETSASTAYLQIINLKNEDAATYFCSRRRRTYDGYLSFDYWGQGTTLTVSS
VL: DIQMTQSPGSLSASVGETVTITCGASENIYGALNWFQRKPGKSPQLLIYGATNLADGMSSRFSGSGSGRQYSLQISSLRPDDVATYYCQNVLTTPWTFGGGTKVEIKR
notes: anti-LILRB1 antibody
As for B2, in experiment [3], the binding result was “binds”.

B3: LK-RB1-9 (antibody, human IgG4 S228P, kappa, V domains shown)
VH: QIQLVQSGPELKKPGETVKISCTASGYTFTTYGMSWVKQAPGKGLKWMGWINTYSGVPTYADDFKGRFAFSLETSASTAYLEINNVKNEDTATYFCARRRRTYHGYLCFDYWGQGTTLTVSS
VL: DIQMTQSPVSLSASVGETVTITCETSENIYGALNWYQRKQGKSPQLLIYGATNLADGMSSRFSGSGSGRQYSLEISSLHPDDVASYYCQNVLNTPWTFGGGTKLEIKR
On to B3, for which the koff – broadly, a measure of how fast the partners let go of each other – in [4] came to 0.000162 s⁻¹; in experiment [5], 0.000155 s⁻¹; in experiment [6], 0.000885 s⁻¹. The Inhibition % in [7] stood at 48.6%; in experiment [8], 73.9%; in [9], 92.1%; in experiment [10], 21.9%; in experiment [11], 10.2%; in experiment [12] it was 67.4%. Besides, the results for the Inhibition % in experiment [13] and in [14] were 89.1% and 88.1%, respectively.

B4: LK-RB1-9.h1 (antibody, human IgG4, kappa, V domains shown)
VH: QVQLVQSGSELKKPGASVKVSCKASGYTFTTYGMSWVRQAPGQGLEWMGWINTYSGVPTYADDFKGRFVFSLDTSVSTAYLQISSLKAEDTAVYYCARRRRTYHGYLSFDYWGQGTTVTVSS
VL: DIQMTQSPSSLSASVGDRVTITCETSENIYGALNWYQQKPGKAPKLLIYGATNLAEGVPSRFSGSGSGTDFTFTISSLQPEDIATYYCQNVLNTPWTFGGGTKLEIKR
notes: humanized LK-RB1-9
With B4, the binding result in experiment [15] and in experiment [16] was “binds” in each case.

B5: LK-RB1-39 (antibody, human IgG4 S228P, kappa, V domains shown)
VH: EVQLQQSGAELVRPGASVKLSCTASGFNIKDDYVHWVNQRPEQGLEWIGWIDPENGDTGYASKFQDKATITADTSSNTAYLHLSSLTSEDTAVYYCTTTRWTGSYWGQGTTLTVSS
VL: QIVLTQSPAIMSASPGEKVTITCSASSSVNYMHWFQQKPGSSPKLWIYSTANLASGVPARFSGSGSGTSYSLTISRMEAEDAATYYCQQRSSYPPTWTFGGGTKLEIKR
notes: anti-LILRB1 clone from mouse hybridoma
For the molecule B5, the binding result in [17], in [18], in [19] and in experiment [20] was “binds” throughout.

B6: LK-RB2-29 (antibody, human IgG4 S228P, kappa, V domains shown)
VH: QVQLQQSGAELARPGASVKLSCKASGYTFTSYWMQWVKQRPGQGLEWIGAIYPGDGDTRYTQKFKGKATLTADKSSSTAYMQLSSLASEDSAVYYCARGYYGSSYADYFDYWGQGTTLTVSS
VL: DIQMTQSPASLSASVGETVTITCRASGNIHNYLAWYQQKQGKSPQLLVYNAKTLADGVPSRFSGSGSGTQYSLKINSLQPEDFGSYYCQHFWSTPPTFGGGTKLEIKR
Regarding B6, the binding result in experiment [1] and in experiment [2] was “binds” in each case.

B7: LK-RB1-45 (antibody, human IgG4 S228P, kappa, V domains shown)
VH: QVQLQQSGTELARPGASVKLSCKASGYTFTNFWMHWIKQRPGQGLEWIGYVNPTSDYTKYNQKFKDKATLTADKSSSTAYMQLNSLTYEDSAVYYCTRSSLYDTNYVFDSWGQGTTLTVSS
VL: DILLTQSPAILSVSPGERVSFSCRASQSIGRSIHWYQQRTNGSPRLLIKYASESISGIPSRFSGGGSGTDFTLSISNVESEDIADYYCQQSNNWPFTFGSGTKLEIKR
notes: as for B5
Take B7: the binding result in experiment [18] is “binds”.

B8: LK-RB1-16.h3 (antibody, human IgG4, kappa, V domains shown)
VH: QVQLQESGPGLVKPSETLSLTCTVSGFSLISNAISWIRQPPGKGLEWLGVIWGDGNTIYHSALRSRLTISKDTSKNQVFLKLSSVTAADTAVYYCAKANWDGYYFDYWGQGTTVTVSS
VL: DIQMTQSPSTLSASVGDRVTITCHASQSVDFWLNWYQQKPGKAPKLLISKASNLHTGVPSRFSGSGSGTEFTLTISSLQPDDFATYYCQQGQSYPLTFGQGTKLEIKR
notes: humanized LK-RB1-16
Turning to B8, the binding result in experiment [15] and in experiment [16] was “binds” throughout.

B9: LK-RB1-11 (antibody, human IgG4 S228P, kappa, V domains shown)
VH: QVTLKESGPGILQPSQTLSLTCSFSGFSLKTSGMSVGWIRQPSGKGLEWLAHIWWNDDKYYNPVLKGRLTISKDTSNNLVFLKIASVVSTDTATYYCVRYGNSHGYWYFDVWGTGTTVTVSS
VL: NIVLTQSPASLAVSLGQRATISCRASESVDSYGNNFIHWYQQKPGQPPKVLIYYASNLEAGVPARFSGSGSRTDFTLTIDPVEAEDAATYYCQQNNEDPYTFGGGTKLEIER
notes: anti-LILRB1 antibody
In the case of B9, the binding result in [21] and in experiment [22] was “binds” throughout.

B10: hz73D1.v1 (antibody, human IgG4 S228P, kappa, V domains shown)
VH: QVQLVQSGAEVKKPGASVKVSCKASGYTFTDYYINWVRQAPGQGLEWMGNVNPNDGGTTYNQKFKGRVTMTTDTSTSTAYMELRSLRSDDTAVYYCARREIYFYGTIYYYAMDYWGQGTLVTVSS
VL: DIQLTQSPSFLSASVGDRVTITCRASESVDYYGNSFMYWYQQKPGKAPKLLIYFASNLESGVPSRFSGSGSGTEFTLTISSLQPEDFATYYCQQNNEDPWTFGGGTKVEIKR
For B10, the koff in experiment [4] turned out to be 5.18e-05 s⁻¹; in experiment [5], 7.52e-06 s⁻¹. Further, the Inhibition % is -3.83% in experiment [7]; 57.4% in experiment [8]; 82.8% in experiment [9]; 61.2% in experiment [10]; 41.6% in experiment [11]; 23.5% in experiment [12]. The Inhibition % in experiment [13] was determined as 46.9%; in experiment [14] it was 31.4%.

B11: LK-RB1-13 (antibody, human IgG4 S228P, kappa, V domains shown)
VH: QVTLKESGPGIVKPSQTLSLTCSFSGFSLSISGTGIGWIRQPSGKGLEWLAHIWWDDDKYYNPSLKSQVTISKDTSTKQVFLNITSVDTADTATYYCTRTELGRGDFWGQGTSVTVSS
VL: DILLTQSPAILSVSPGDRVSFSCRASQSTGTNIHWYQRRTNGSPRLLIKYGSESISGIPSRFSGSGTGTDFTLTINSVESEDIADYYCQQSYSWPYTFGGGTKLEIKR
notes: anti-LILRB1 antibody
On to B11, for which the binding result in experiment [23] is recorded as “binds”.

B12: LK-RB1-15 (antibody, human IgG4 S228P, kappa, V domains shown)
VH: QVTLKESGPGIVKPSQTLSLTCSFSGFSLSISGTGIGWIRQPSGKGLEWLAHIWWDDDKYYNPSLKSQVTISKDTSTKQVFLNITSVDTADTATYYCTRTELGRGDFWGQGTSVTVSS
VL: DILLTQSPAILSVSPGDRVSFSCRASQSIGTNIHWYQRRTNGSPRLLIKYGSESISGIPSRFSGSGTGTDFTLTINSVESEDIADYYCQQSYSWPYTFGGGTKLEIKR
notes: anti-LILRB1 antibody
Take B12: the binding result in [21] and in experiment [22] was “binds” in each case.
